Blank lines part the entries; values can stand above or below the binder they belong to.
B1: human Ero1α, wild type, N-terminal His tag (E24-H468) (enzyme, UniProt Q96HE7 24-468, looked up)
chain: EEQPPETAAQRCFCQVSGYLDDCTCDVETIDRFNNYRLFPRLQKLLESDYFRYYKVNLKRPCPFWNDISQCGRRDCAVKPCQSDEVPDGIKSASYKYSEEANNLIEECEQAERLGAVDESLSEETQKAVLQWTKHDDSSDNFCEADDIQSPEAEYVDLLLNPERYTGYKGPDAWKIWNVIYEENCFKPQTIKRPLNPLASGQGTSEENTFYSWLEGLCVEKRAFYRLISGLHASINVHLSARYLLQETWLEKKWGHNITEFQQRFDGILTEGEGPRRLKNLYFLYLIELRALSKVLPFFERPDFQLFTGNKIQDEENKMLLLEILHEIKSFPLHFDENSFFAGDKKEAHKLKEDFRLHFRNISRIMDCVGCFKCRLWGKLQTQGLGTALKILFSEKLIANMPESGPSYEFHLTRQEIVSLFNAFGRISTSVKELENFRNLLQNIH
modifications: (phospho)gluconoylation of the N-terminal His tag, gluconoylated species the major state
notes: human Ero1α, mature, residues E24-H468; With co-expressed PDI it purifies as a heterodimer; also called endoplasmic reticulum oxidoreductin 1 alpha; CCCC; source: E. coli BL21(DE3)ΔtrxAΔtrxC with CyDisCo components co-expressed; in lysate, and purified (cobalt IMAC, anion exchange, size exclusion)
B2: human Ero1β, wild type, N-terminal His tag (Q34-R467, natural D129V and H465Q variant) (enzyme, UniProt Q86YB8 34-467, looked up)
chain: QVTGVLDDCLCDIDSIDNFNTYKIFPKIKKLQERDYFRYYKVNLKRPCPFWAEDGHCSIKDCHVEPCPESKIPVGIKAGHSNKYLKMANNTKELEVCEQANKLGAINSTLSNQSKEAFIDWARYDDSRDHFCELDDERSPAAQYVDLLLNPERYTGYKGTSAWRVWNSIYEENCFKPRSVYRPLNPLAPSRGEDDGESFYTWLEGLCLEKRVFYKLISGLHASINLHLCANYLLEETWGKPSWGPNIKEFKHRFDPVETKGEGPRRLKNLYFLYLIELRALSKVAPYFERSIVDLYTGNAEEDADTKTLLLNIFQDTKSFPMHFDEKSMFAGDKKGAKSLKEEFRLHFKNISRIMDCVGCDKCRLWGKLQTQGLGTALKILFSEKEIQKLPENSPSKGFQLTRQEIVALLNAFGRLSTSIRDLQNFKVLLQQSR
modifications: (phospho)gluconoylation of the N-terminal His tag, gluconoylated species the major state
notes: human Ero1β, mature, residues Q34-R467, natural D129V and H465Q variant; With co-expressed PDI it purifies as a heterodimer; also called CCCC; source: E. coli BL21(DE3)ΔtrxAΔtrxC with CyDisCo components co-expressed; in lysate, and purified (cobalt IMAC, anion exchange, size exclusion)
B4: human PDI, wild type, non-tagged, purified (enzyme)
chain: not shown
B6: human PDI with three consecutive FLAG tag sequences inserted before the ER retention signal, non-His-tagged (enzyme)
chain: not shown
notes: human PDI, mature, codon-optimized; residues after the TEV site probably stay on the protein; also called PDI3FLAG; source: E. coli, purified (cobalt IMAC, TEV protease cleavage, anion exchange); not shown: 3xFLAG, internal (after residue 503), kept; His6, N-terminal, cleaved

Columns and labels:
[1] = target: B6; assay: pull-down; PDI exchange assay with the redox state of both components fixed by GSSG before mixing; settings: both partners purified
[2] = target: B4; assay: pull-down; PDI exchange assay: 1 μM His-tagged Ero1–PDI heterodimer with non-His-tagged PDI, PDI3FLAG or other PDI family member (1:1 or 10:1), 1 h at RT, 20 mM sodium phosphate pH 7.3, 150 mM NaCl; Ni-NTA spin columns with 10 mM imidazole; reducing SDS–PAGE; settings: both partners purified
[3] = target: His-tagged Ero1β–PDI heterodimer (human, UniProt Q86YB8 34-467; P07237 18-508, D129V | H465Q, (phospho)gluconoylation of the N-terminal His tag, gluconoylated species the major state); assay: cell-based or functional assay
[4] = target: His-tagged Ero1α–PDI heterodimer (human, UniProt Q96HE7 24-468; P07237 18-508, (phospho)gluconoylation of the N-terminal His tag, gluconoylated species the major state); assay: cell-based or functional assay
[5] = target: B1; assay: pull-down; His-tagged Ero1 co-expressed with untagged PDI (CyDisCo) in E. coli; large-scale purification by cobalt IMAC, anion exchange and size-exclusion chromatography; SDS–PAGE; settings: partners not purified
[6] = target: B2; assay: as above; settings: partners not purified
[7] = target: T1, human Ero1α C104A/C131A, N-terminal His tag (human, UniProt Q96HE7 24-468, C104A | C131A); assay: as above; settings: partners not purified
T1 construct: human Ero1α, mature, residues E24-H468; also called CCAA (h.a.); source: E. coli BL21(DE3)ΔtrxAΔtrxC with CyDisCo (Erv1p, PDI) co-expressed; in lysate, and purified
T1 sequence (looked up): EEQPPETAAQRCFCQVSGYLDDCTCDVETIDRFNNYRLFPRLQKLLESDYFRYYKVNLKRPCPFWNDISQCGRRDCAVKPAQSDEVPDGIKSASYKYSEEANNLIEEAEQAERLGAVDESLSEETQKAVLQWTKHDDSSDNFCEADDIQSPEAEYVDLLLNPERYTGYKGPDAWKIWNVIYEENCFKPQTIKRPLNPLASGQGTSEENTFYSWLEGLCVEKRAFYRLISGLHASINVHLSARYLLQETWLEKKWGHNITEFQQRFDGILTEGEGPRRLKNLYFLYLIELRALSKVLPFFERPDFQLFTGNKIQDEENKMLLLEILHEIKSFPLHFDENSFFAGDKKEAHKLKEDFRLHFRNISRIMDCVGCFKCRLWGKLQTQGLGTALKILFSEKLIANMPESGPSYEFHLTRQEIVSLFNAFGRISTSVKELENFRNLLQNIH

[8] = target: T2, human Ero1β C100/130A, N-terminal His tag (human, UniProt Q86YB8 34-467, D129V | H465Q | C100/130A | C100/130A); assay: as above; settings: partners not purified
T2 construct: human Ero1β, mature, residues Q34-R467, natural D129V and H465Q variant; also called CCAA (h.a.); source: E. coli BL21(DE3)ΔtrxAΔtrxC with CyDisCo (Erv1p, PDI) co-expressed; in lysate, and purified
T2 sequence (looked up): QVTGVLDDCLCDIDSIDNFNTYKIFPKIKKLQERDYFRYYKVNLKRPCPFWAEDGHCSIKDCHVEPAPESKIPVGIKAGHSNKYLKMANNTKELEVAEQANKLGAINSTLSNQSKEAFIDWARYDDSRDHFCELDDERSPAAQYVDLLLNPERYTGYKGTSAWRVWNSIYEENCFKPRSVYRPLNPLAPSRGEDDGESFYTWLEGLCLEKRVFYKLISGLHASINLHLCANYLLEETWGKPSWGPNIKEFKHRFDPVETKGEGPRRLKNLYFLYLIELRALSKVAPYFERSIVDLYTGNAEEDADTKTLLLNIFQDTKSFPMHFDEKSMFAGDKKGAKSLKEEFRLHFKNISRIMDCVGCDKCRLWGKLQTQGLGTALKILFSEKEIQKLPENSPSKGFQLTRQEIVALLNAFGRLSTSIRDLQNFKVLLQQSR

[9] = target: B1; assay: pull-down; PDI exchange assay: 1 μM His-tagged Ero1–PDI heterodimer with non-His-tagged PDI, PDI3FLAG or other PDI family member (1:1 or 10:1), 1 h at RT, 20 mM sodium phosphate pH 7.3, 150 mM NaCl; Ni-NTA spin columns with 10 mM imidazole; reducing SDS–PAGE; settings: both partners purified
[10] = target: B2; assay: as above; settings: both partners purified

His-tagged Ero1β–PDI heterodimer, sequence (P07237 18-508, stated change not applied, one chain of several): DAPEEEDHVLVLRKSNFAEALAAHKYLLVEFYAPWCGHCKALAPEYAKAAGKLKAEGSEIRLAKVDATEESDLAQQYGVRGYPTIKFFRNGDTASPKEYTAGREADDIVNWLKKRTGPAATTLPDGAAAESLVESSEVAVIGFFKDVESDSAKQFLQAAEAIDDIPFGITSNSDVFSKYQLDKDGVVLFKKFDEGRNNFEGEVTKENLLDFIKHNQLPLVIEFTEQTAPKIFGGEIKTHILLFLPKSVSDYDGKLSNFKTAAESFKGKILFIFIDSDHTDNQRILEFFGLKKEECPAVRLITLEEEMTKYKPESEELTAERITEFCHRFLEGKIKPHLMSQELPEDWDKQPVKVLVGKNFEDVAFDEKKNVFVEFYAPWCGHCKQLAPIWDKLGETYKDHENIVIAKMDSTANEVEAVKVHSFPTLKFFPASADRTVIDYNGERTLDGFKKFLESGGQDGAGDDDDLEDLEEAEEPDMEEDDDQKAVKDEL
His-tagged Ero1α–PDI heterodimer, sequence (P07237 18-508, one chain of several): as the sequence (P07237 18-508, stated change not applied, one chain of several) above

Binder: B1
binding result [1]: binds | binding result [2]: binds

Binder: B2
binding result [1]: binds | binding result [2]: binds

acceleration of kcat of oxygen consumption by 10 μM external PDIp [3]: 3.7 fold
B3: human PDIp, non-tagged (enzyme, UniProt Q13087 22-525, looked up)
chain: QEQGARSPSEEPPEEEIPKEDGILVLSRHTLGLALREHPALLVEFYAPWCGHCQALAPEYSKAAAVLAAESMVVTLAKVDGPAQRELAEEFGVTEYPTLKFFRNGNRTHPEEYTGPRDAEGIAEWLRRRVGPSAMRLEDEAAAQALIGGRDLVVIGFFQDLQDEDVATFLALAQDALDMTFGLTDRPRLFQQFGLTKDTVVLFKKFDEGRADFPVDEELGLDLGDLSRFLVTHSMRLVTEFNSQTSAKIFAARILNHLLLFVNQTLAAHRELLAGFGEAAPRFRGQVLFVVVDVAADNEHVLQYFGLKAEAAPTLRLVNLETTKKYAPVDGGPVTAASITAFCHAVLNGQVKPYLLSQEIPPDWDQRPVKTLVGKNFEQVAFDETKNVFVKFYAPWCTHCKEMAPAWEALAEKYQDHEDIIIAELDATANELDAFAVHGFPTLKYFPAGPGRKVIEYKSTRDLETFSKFLDNGGVLPTEEPPEEPAAPFPEPPANSTMGSKEEL

Binder: B4
acceleration of kcat of oxygen consumption by 10 μM external PDI [4]: 7.1 fold | acceleration of kcat of oxygen consumption by 10 μM external PDI [3]: 4.8 fold

stoichiometry N [5]: ~1 PDI per Ero1 | stoichiometry N [6]: ~1 PDI per Ero1 | stoichiometry N [7]: 1 PDI per Ero1 | stoichiometry N [8]: 1 PDI per Ero1
B5: human protein disulfide isomerase (PDI), wild type, co-expressed CyDisCo component (enzyme)
chain: not shown
notes: human PDI, wild-type codon-optimized gene of the CyDisCo plasmid pMJS205; also called wild-type PDI; source: E. coli BL21(DE3)ΔtrxAΔtrxC, co-expressed with Ero1 from pMJS205; in lysate, and co-purified with His-tagged Ero1

Binder: B6
ratio of co-purified PDI3FLAG to wild-type PDI (PDI3FLAG added 1:1) [9]: ~1 PDI3FLAG per wild-type PDI | wild-type PDI left in the complex with 10-fold PDI3FLAG, percent of the original [9]: ~10% | ratio of co-purified PDI3FLAG to wild-type PDI (PDI3FLAG added 1:1) [10]: ~1 PDI3FLAG per wild-type PDI | wild-type PDI left in the complex with 10-fold PDI3FLAG, percent of the original [10]: ~10%
